Laboratory results published in the supplement of paper PMC10724198.
± gives the standard deviation of the averaged measurements.

Tested on: Saccharomyces cerevisiae
Assay: protein stability index of tFT-peptide fusion (C-terminal peptide) (PSI (0-1 scale)); higher = more stable (slower turnover)
Conditions: temperature: 30 C
Protocol: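 MPS profiling in S. cerevisiae of the yeast C-terminome library: the last 12 aa of each annotated ORF are fused to the C-terminus of a sfGFP-mCherry timer, after a GGGS linker. Cells are FACS-sorted into 8 mCherry/sfGFP bins and deep-sequenced. PSI runs from 0 (unstable) to 1 (stable); wild type and das1Δ backgrounds, two technical replicates each.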

[1] = genetic background: das1 deletion

Sequence | protein stability index [1] | protein stability index (genetic background: wild type)
VFEVFSRMDMLL [VPS74 C-terminal 12 aa] | 0.7149 ± 0.0058 | 0.773 ± 0.027
VFGGCATTWIVL [ATS1 C-terminal 12 aa] | 0.6971 ± 0.0038 | 0.692 ± 0.0096
VFLELKKAQRWA [API2 C-terminal 12 aa] | 0.703 ± 0.019 | 0.686 ± 0.011
VFNDIFRLNYSA [NTF2 C-terminal 12 aa] | 0.7108 ± 0.0032 | 0.504 ± 0.0084
VFPETDSIFEPV [RAF1 C-terminal 12 aa] | 0.733 ± 0.022 | 0.715 ± 0.0081
VGKKLETFKKTN [WBP1 C-terminal 12 aa] | 0.717 ± 0.0088 | 0.48 ± 0.019
VGRHSSRLMCPG [YBR126W-B C-terminal 12 aa] | 0.6932 ± 0.0053 | 0.689 ± 0.022
VHAENTTLREIL [CDC50 C-terminal 12 aa] | 0.706 ± 0.036 | 0.7076 ± 0.0047
VHLEKKKDEDKK [UBX7 C-terminal 12 aa] | 0.67376 ± 4e-05 | 0.668 ± 0.021
VIIVPIAVHFSR [SNC1 C-terminal 12 aa] | 0.561 ± 0.024 | 0.581 ± 0.0095
VILSETVVILYY [YKR032W C-terminal 12 aa] | 0.346 ± 0.014 | 0.345 ± 0.0067
VKFGLQMAYLQS [YMR007W C-terminal 12 aa] | 0.7023 ± 0.005 | 0.6586 ± 0.0059
VLGDVIKIAQRL [HOM6 C-terminal 12 aa] | 0.728 ± 0.008 | 0.747 ± 0.031
VLSNNVPYTQPR [RCH1 C-terminal 12 aa] | 0.703 ± 0.029 | 0.745 ± 0.054
VLYIILYYIILY [YGL024W C-terminal 12 aa] | 0.282 ± 0.02 | 0.181 ± 0.035
VMQELRKLKNAM [GLO4 C-terminal 12 aa] | 0.709 ± 0.018 | 0.64 ± 0.025
VMSLYNLACKYI [SAM37 C-terminal 12 aa] | 0.797 ± 0.013 | 0.577 ± 0.056
VNELVELMTQSA [SEC18 C-terminal 12 aa] | 0.675 ± 0.015 | 0.695 ± 0.014
VNERSHDVKFTK [YIL165C C-terminal 12 aa] | 0.686 ± 0.006 | 0.689 ± 0.01
VNHSFEFNDVLQ [IFH1 C-terminal 12 aa] | 0.686 ± 0.014 | 0.738 ± 0.025
VPGGKKTPTEAL [LSM5 C-terminal 12 aa] | 0.6817 ± 0.0014 | 0.707 ± 0.026

Sequence | protein stability index [1] | protein stability index (genetic background: wild type)
VPQLHSFIAKEQ [RMD9 C-terminal 12 aa] | 0.699 ± 0.017 | 0.3 ± 0.0037
VPSLLILSVFFS [YPS3 C-terminal 12 aa] | 0.27 ± 0.03 | 0.273 ± 0.012
VQEWEVLGRVDV [CPD1 C-terminal 12 aa] | 0.724 ± 0.014 | 0.692 ± 0.022
VQQMVEMQGKMR [SGM1 C-terminal 12 aa] | 0.71134 ± 0.00034 | 0.68508 ± 0.00063
VSDSSYDEYSNE [SYT1 C-terminal 12 aa] | 0.679 ± 0.021 | 0.672 ± 0.03
VSKTYEEHIETV [JEN1 C-terminal 12 aa] | 0.688 ± 0.023 | 0.692 ± 0.013
VSNASNGCVLDA [ILV3 C-terminal 12 aa] | 0.70459 ± 3.7e-05 | 0.707 ± 0.013
VTSGKAHFVLYN [SIM1 C-terminal 12 aa] | 0.695 ± 0.017 | 0.655 ± 0.017
VVERTRQAHFAI [YEF1 C-terminal 12 aa] | 0.676 ± 0.023 | 0.6752 ± 0.0036
VVTYTLKVDLKV [YLR152C C-terminal 12 aa] | 0.469 ± 0.025 | 0.491 ± 0.012
VVVVVPAVVKTR [SSO1 C-terminal 12 aa] | 0.503 ± 0.011 | 0.5221 ± 0.0046
VVYYQMRCKKMT [BUD26 C-terminal 12 aa] | 0.678 ± 0.032 | 0.4177 ± 0.0039
VYVENPIRLFHH [ADE16 C-terminal 12 aa] | 0.712 ± 0.0083 | 0.7235 ± 0.0019
WAVICFCSGIHK [YMR027W C-terminal 12 aa] | 0.5858 ± 0.0021 | 0.546 ± 0.013
WDFKKQGFASRD [PDA1 C-terminal 12 aa] | 0.696 ± 0.01 | 0.6926 ± 0.003
WERTMRDLKLIH [ALG1 C-terminal 12 aa] | 0.742 ± 0.027 | 0.64 ± 0.033
WEVVTGIRKLLI [PEX12 C-terminal 12 aa] | 0.68 ± 0.008 | 0.401 ± 0.014
WFSCSLIFRNSW [YJR140W-A C-terminal 12 aa] | 0.6314 ± 0.0035 | 0.618 ± 0.053
WSNNDDMEQNPW [YPR089W C-terminal 12 aa] | 0.7236 ± 0.0055 | 0.713 ± 0.029
WTTEPYLQRIIW [DIE2 C-terminal 12 aa] | 0.753 ± 0.0089 | 0.718 ± 0.016
